In US20050181476A1 (VLAAMS INTERUNIVERSITAIR INSTITUUT VOOR BIOTECHNOLOGIE VZW, published 2005):

Biological target: T1, IRAK-4 (UniProt Q9NWZ3 1-460)
T1 construct: also called Gal4AD-IRAK4 (in yeast); not shown: N-terminal Flag or VSV tag (pCRIII) in HEK293T co-immunoprecipitation
T1 sequence (looked up): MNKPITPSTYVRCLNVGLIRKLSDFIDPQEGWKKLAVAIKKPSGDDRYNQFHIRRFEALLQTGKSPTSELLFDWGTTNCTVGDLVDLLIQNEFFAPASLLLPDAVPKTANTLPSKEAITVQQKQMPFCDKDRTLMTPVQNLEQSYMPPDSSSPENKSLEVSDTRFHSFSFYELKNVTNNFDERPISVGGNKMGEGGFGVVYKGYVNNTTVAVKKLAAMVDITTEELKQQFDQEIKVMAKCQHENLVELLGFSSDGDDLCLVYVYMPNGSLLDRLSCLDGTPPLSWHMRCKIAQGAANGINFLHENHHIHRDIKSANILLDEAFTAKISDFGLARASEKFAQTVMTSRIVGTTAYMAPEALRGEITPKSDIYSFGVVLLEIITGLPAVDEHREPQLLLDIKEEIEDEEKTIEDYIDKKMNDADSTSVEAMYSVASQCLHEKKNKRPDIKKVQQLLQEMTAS
Assay: co-immunoprecipitation from transfected HEK293T cells
Method: To test this, IRAK-1KD and IRAK-4 interactions were analyzed in the presence or absence of MyD88 and/or MyD88S. […] However, addition of MyD88 but not MyD88S permitted assembly of a complex containing both IRAKs. MyD88 thereby appears to act like a hinge inducing the proximity of IRAK-1 and IRAK-4.
2×10⁶ HEK293T cells were plated on 10-cm petri dishes and transiently transfected with 1 μg of the indicated expression plasmids. The total amount of DNA was kept at 5 μg per petri dish by adding empty vector. Twenty-four hours post-transfection, cells were washed with PBS, and lysed in 500 μl lysis buffer (50 mM HEPES pH7.6, 250 mM NaCl, 0.1% NP-40, 5 mM EDTA, supplemented with protease and phosphatase inhibitors). Lysates were incubated for 16 hours with 5 μg anti-Flag (Sigma). Immunocomplexes were immobilized on protein A-Trisacryl beads (Pierce Chemical Co., Rockford, USA). The beads were washed twice with lysis buffer and twice with lysis buffer containing 1 M NaCl. Bound proteins were eluted by boiling in Laemli buffer and analyzed by 10% SDS-PAGE and Western blotting. Western blots were blocked with 5% milk and incubated overnight with primary antibodies. Antibodies raised against the C-terminal part of MyD88 were purchased from Immucor (Roedermark, Germany). […]

B1: E-MyD88S (other)
chain: MSAGDPRVGSGSLDSFMFSIPLVALNVGVRRRLSLFLNPRTPVAADWTLLPEEMGFEYLEIRELETRPDPTRSLLDAWQGRSGASVGRLLELLALLDREDILKELKSRIGQTPELFDAFICYCPNDIEFVQEMIRQLEQTDYRLKLCVSDRDVLPGTCVWSIASELIEKRCRRMVVVVSDDYLQSKECDFQTKFALSLSPGVQQKRLIPIKYKAMKKDFPSILRFITICDYTNPCTKSWFWTRLAKALSLP
notes: Expressed in HEK293T cells; also called pCAGGS-E-MyD88S; splice variant of MyD88 lacking the intermediate domain (ID); not shown: N-terminal E-tag
B1: no binding.
